Experimental findings from the RNAGym collection of RNA variant scans (doi:10.1093/nar/gkz1192) are described below.

To fix the notation:
B1: CPEB3 Ribozyme (parent)
chain: UAACAGGGGGCCACAGCAGAAGCGUUCACGUCGCAGCCCCUGUCAGAUUCUGGUGAAUCUGCGAAUUCUGCUGUAUAUCUC

This series covers variants of B1. Kind of series: self-cleavage, relative activity (ratio to wild type); higher = more cleavage; in vitro, sequencing. The essentials: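 For each CPEB3 ribozyme variant, relative activity is its cleaved/total read fraction divided by the unmutated ribozyme's. Barcoded error-prone PCR libraries were transcribed by T7 RNA polymerase (5 hours, 37°C) and held in DNase I for 15 min before an EDTA stop, with cleavage occurring throughout. Template-switching reverse transcription and Illumina sequencing were used to read the RNAs. A 5-read minimum applied, and results are the mean of three batches.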
As for UAACAGGGGGCCACAGCAGAAGCGUUCACGUCGCAGCCCCUGUCAGAUUCUGGUGAAUCUGCGAAUUCUGCUGCUUAUCUC [U74C A75U], the self-cleavage came out at 1.26.

For the variant UAACAGGGGGCCACAGCAGAAGCGUUCACGUCGCAGCCCCUGUCAGAUUCUGGUGAAUCUGCGAAUUCUGCUGCGUAUCUC [U74C A75G], the self-cleavage was determined as 1.25.

As to UAACAGGGGGCCACAGCAGAAGCGUUCACGUCGCAGCCCCUGUCAGAUUCUGGUGAAUCUGCGAAUUCUGCUAUAUACCUC [G73A U78C], the self-cleavage came to 1.32.

For the variant UAACAGGGGGCCACAGCAGAAGCGUUCACGUCGCAGCCCCUGUCAGAUUCUGGUGAAUCUGCGAAUUCUGCUGAAUGUCUC [U74A A77G], the self-cleavage came to 1.26.

For the variant UAACAGGGGGCCACAGCAGAAGCGUUCACGUCGCAGCCCCUGUCAGAUUCUGGUGAAUCUGCGAAUUCUGCUCUAUAUCUC [G73C], the self-cleavage was 1.25.

In the case of UAACAGGGGGCCACAGCAGAAGCGUUCACGUCGCAGCCCCUGUCAGAUUCUGGUGAAUCUGCGAAUUCUGCUUUAUAUCUC [G73U], the self-cleavage worked out at 1.28.

Regarding UAACAGGGGGCCACAGCAGAAGCGUUCACGUCGCAGCCCCUGUCAGAUUCUGGUGAAUCUGCGAAUUCUGCUAUAUAUCUC [G73A], the self-cleavage is 1.27.

For the variant UAACAGGGGGCCACAGCAGAAGCGUUCACGUCGCAGCCCCUGUCAGAUUCUGGUGAAUCUGCGAAUUCUGCUGCAUAUCUU [U74C C81U], the self-cleavage was determined as 1.23.

On to UAACAGGGGGCCACAGCAGAAGCGUUCACGUCGCAGCCCCUGUCAGAUUCUGGUGAAUCUGCGAAUUCUGCUGCAUAUCUA [U74C C81A], for which the self-cleavage came to 1.26.

Take UAACAGGGGGCCACAGCAGAAGCGUUCACGUCGCAGCCCCUGUCAGAUUCUGGUGAAUCUGCGAAUUCUGCUGGGUAUCUC [U74G A75G]: the self-cleavage was determined as 1.26.

In the case of UAACAGGGGGCCACAGCAGAAGCGUUCACGUCGCAGCCCCUGUCAGAUUCUGGUGAAUCUGCGAAUUCUGCUGGUUAUCUC [U74G A75U], the self-cleavage amounted to 1.29.

For the variant UAACAGGGGGCCACAGCAGAAGCGUUCACGUCGCAGCCCCUGUCAGAUUCUGGUGAAUCUGCGAAUUCUGCUGUGUAACUC [A75G U78A], the self-cleavage was found to be 1.3.

Regarding UAACAGGGGGCCACAGCAGAAGCGUUCACGUCGCAGCCCCUGUCAGAUUCUGGUGAAUCUGCGAAUUCUGCUGUGUAGCUC [A75G U78G], the self-cleavage turned out to be 0.62.

As to UAACAGGGGGCCACAGCAGAAGCGUUCACGUCGCAGCCCCUGUCAGAUUCUGGUGAAUCUGCGAAUUCUGCUGUGUACCUC [A75G U78C], the self-cleavage was found to be 0.67.

On to UAACAGGGGGCCACAGCAGAAGCGUUCACGUCGCAGCCCCUGUCAGAUUCUGGUGAAUCUGCGAAUUCUGCUGUGUAUUUC [A75G C79U], for which the self-cleavage came out at 1.18.

As for UAACAGGGGGCCACAGCAGAAGCGUUCACGUCGCAGCCCCUGUCAGAUUCUGGUGAAUCUGCGAAUUCUGCUGAAUAUCUC [U74A], the self-cleavage was determined as 1.25.

Regarding UAACAGGGGGCCACAGCAGAAGCGUUCACGUCGCAGCCCCUGUCAGAUUCUGGUGAAUCUGCGAAUUCUGCUGCAUAUCUC [U74C], the self-cleavage was determined as 1.23.

On to UAACAGGGGGCCACAGCAGAAGCGUUCACGUCGCAGCCCCUGUCAGAUUCUGGUGAAUCUGCGAAUUCUGCUGGAUAUCUC [U74G], for which the self-cleavage worked out at 1.24.

Take UAACAGGGGGCCACAGCAGAAGCGUUCACGUCGCAGCCCCUGUCAGAUUCUGGUGAAUCUGCGAAUUCUGCUAUAUAUCCC [G73A U80C]: the self-cleavage was found to be 1.36.

For UAACAGGGGGCCACAGCAGAAGCGUUCACGUCGCAGCCCCUGUCAGAUUCUGGUGAAUCUGCGAAUUCUGCUAUAUAUCAC [G73A U80A], the self-cleavage stood at 1.25.

Take UAACAGGGGGCCACAGCAGAAGCGUUCACGUCGCAGCCCCUGUCAGAUUCUGGUGAAUCUGCGAAUUCUGCUGGAUAACUC [U74G U78A]: the self-cleavage amounted to 1.26.

In the case of UAACAGGGGGCCACAGCAGAAGCGUUCACGUCGCAGCCCCUGUCAGAUUCUGGUGAAUCUGCGAAUUCUGCUGGAUACCUC [U74G U78C], the self-cleavage was determined as 1.26.

As for UAACAGGGGGCCACAGCAGAAGCGUUCACGUCGCAGCCCCUGUCAGAUUCUGGUGAAUCUGCGAAUUCUGCUCUAUAGCUC [G73C U78G], the self-cleavage was 1.23.

Regarding UAACAGGGGGCCACAGCAGAAGCGUUCACGUCGCAGCCCCUGUCAGAUUCUGGUGAAUCUGCGAAUUCUGCUGCAUAUCAC [U74C U80A], the self-cleavage was 1.28.

As to UAACAGGGGGCCACAGCAGAAGCGUUCACGUCGCAGCCCCUGUCAGAUUCUGGUGAAUCUGCGAAUUCUGCUGCAUAUCCC [U74C U80C], the self-cleavage came to 1.24.

Regarding UAACAGGGGGCCACAGCAGAAGCGUUCACGUCGCAGCCCCUGUCAGAUUCUGGUGAAUCUGCGAAUUCUGCUGCAUAUAUC [U74C C79A], the self-cleavage came to 1.31.

On to UAACAGGGGGCCACAGCAGAAGCGUUCACGUCGCAGCCCCUGUCAGAUUCUGGUGAAUCUGCGAAUUCUGCUGCAUAUGUC [U74C C79G], for which the self-cleavage was 1.45.

With UAACAGGGGGCCACAGCAGAAGCGUUCACGUCGCAGCCCCUGUCAGAUUCUGGUGAAUCUGCGAAUUCUGCUGCAUAGCUC [U74C U78G], the self-cleavage worked out at 1.17.

For the variant UAACAGGGGGCCACAGCAGAAGCGUUCACGUCGCAGCCCCUGUCAGAUUCUGGUGAAUCUGCGAAUUCUGCUGCAUACCUC [U74C U78C], the self-cleavage was determined as 1.3.

On to UAACAGGGGGCCACAGCAGAAGCGUUCACGUCGCAGCCCCUGUCAGAUUCUGGUGAAUCUGCGAAUUCUGCUGCAUAACUC [U74C U78A], for which the self-cleavage stood at 1.29.

On to UAACAGGGGGCCACAGCAGAAGCGUUCACGUCGCAGCCCCUGUCAGAUUCUGGUGAAUCUGCGAAUUCUGCUUUACAUCUC [G73U U76C], for which the self-cleavage was found to be 1.21.

As for UAACAGGGGGCCACAGCAGAAGCGUUCACGUCGCAGCCCCUGUCAGAUUCUGGUGAAUCUGCGAAUUCUGCUGAAUAACUC [U74A U78A], the self-cleavage was found to be 1.18.

For the variant UAACAGGGGGCCACAGCAGAAGCGUUCACGUCGCAGCCCCUGUCAGAUUCUGGUGAAUCUGCGAAUUCUGCUGAAUACCUC [U74A U78C], the self-cleavage amounted to 1.23.

As to UAACAGGGGGCCACAGCAGAAGCGUUCACGUCGCAGCCCCUGUCAGAUUCUGGUGAAUCUGCGAAUUCUGCUGUGUAUCUU [A75G C81U], the self-cleavage turned out to be 1.18.
